Results reported in publication PMC9960136, “VH-Based Mini Q-Body: A Novel Quench-Based Immunosensor” (Sensors (Basel, Switzerland), 2023).
Residue numbers refer to the chain shown, from its start. In names and notes the source's numbering stands.

B1: C3 mini Q-body labeled with TAMRA-C0 (VHH)
VHH: EVQLLESGGGLVQPGGSLRLSCAASGFRDSDEDMGWVRQAPGKGLEWVSSIYGESGSTYYADSVKGRFTISRDNSKNTLYLQMNSLRAEDTAVYYCASYNYYYNVFDYWGQGTLVTVSS
notes: as the VH of m1; Same chain as m1 with the dye on the Cys-tag; not shown: His-tag, C-terminal, kept
B2: C3 mini Q-body labeled with ATTO520 (VHH)
VHH: B1 VHH
notes: as the VH of m1; Same chain as m1 with the dye on the Cys-tag; also called ATTO520-C2; not shown: His-tag, C-terminal, kept
B3: C3 mini Q-body labeled with TAMRA-C6(5) (VHH)
VHH: B1 VHH
notes: as for B1
B4: C3 mini Q-body labeled with rhodamine 6G (R6G-C5) (VHH)
VHH: B1 VHH
notes: as the VH of m1; Same chain as m1 with the dye on the Cys-tag; also called R6G-C5 Q-body; Rhodamine 6G-labeled mini Q-body; not shown: His-tag, C-terminal, kept
B5: C3 mini Q-body labeled with TAMRA-C5 (VHH)
VHH: B1 VHH
notes: as the VH of m1; Same chain as m1 with the dye on the Cys-tag; also called TAMRA-C5-labeled C3 mini Q-body; TAMRA-labeled C3WT; not shown: His-tag, C-terminal, kept
B6: C3 mini Q-body labeled with TAMRA-C6(6) (VHH)
VHH: B1 VHH
notes: as for B1
B7: C3 mini Q-body labeled with TAMRA-C2 (VHH)
VHH: B1 VHH
notes: as for B1
B8: TAMRA-C5-labeled C3 W47F mini Q-body (VHH)
VHH: B1 VHH with W47F
notes: as the VH of m1 with W47F; Same chain as m10 with the dye on the Cys-tag; also called W47F (after labeling with TAMRA-C5); source: labeled with TAMRA-C5; not shown: His-tag, C-terminal, kept
B9: C3 mutant W47F (unlabeled) (VHH)
VHH: B1 VHH with W47F
notes: as the VH of m1 with W47F; not shown: His-tag, C-terminal, kept
B10: C3 mutant W36F (unlabeled) (VHH)
VHH: B1 VHH with W36F
notes: as the VH of m1 with W36F; not shown: His-tag, C-terminal, kept

biological target: T1, bovine serum albumin (Bos taurus (bovine), UniProt P02769); test: other fluorescence titration; de-quenching at one concentration: 10 ng mini Q-body in 250 μL PBST; 10 μM antigen added, measured after 5 min; BSA as control antigen; settings: both partners purified
T1 construct: bovine serum albumin (BSA); No supplier is named for BSA; also called BSA; control antigen
T1 sequence (P02769 25-607): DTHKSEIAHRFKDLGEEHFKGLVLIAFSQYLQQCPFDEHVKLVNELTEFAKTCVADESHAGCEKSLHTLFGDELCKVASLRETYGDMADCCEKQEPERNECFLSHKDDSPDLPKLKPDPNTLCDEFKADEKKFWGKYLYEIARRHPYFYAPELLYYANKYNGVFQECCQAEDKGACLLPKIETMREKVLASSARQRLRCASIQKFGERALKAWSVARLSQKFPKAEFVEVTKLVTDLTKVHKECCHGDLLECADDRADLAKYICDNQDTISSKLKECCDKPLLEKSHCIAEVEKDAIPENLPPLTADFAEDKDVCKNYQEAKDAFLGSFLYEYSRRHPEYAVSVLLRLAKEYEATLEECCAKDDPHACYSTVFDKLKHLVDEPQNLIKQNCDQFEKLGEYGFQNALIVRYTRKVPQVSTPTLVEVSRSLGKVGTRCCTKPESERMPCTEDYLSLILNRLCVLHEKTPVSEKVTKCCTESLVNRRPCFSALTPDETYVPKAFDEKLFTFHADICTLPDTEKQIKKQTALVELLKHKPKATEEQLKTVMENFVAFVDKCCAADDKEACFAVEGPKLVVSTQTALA

Row | binding result | Binder
1 | no binding | B1
2 | no binding | B2
3 | no binding | B3
4 | no binding | B4
5 | no binding | B5
6 | no binding | B6
7 | no binding | B7

biological target: T2, hen egg lysozyme (Gallus gallus (hen), UniProt P00698); test: other fluorescence titration; de-quenching dose response: 10 ng mini Q-body in 250 μL PBST in a quartz cell; antigen added stepwise (0, 1 nM to 10 μM) at 5 min intervals; EC50 by 4-parameter logistic fit; settings: both partners purified
T2 construct: hen egg lysozyme (HEL), lysozyme C of the chicken; No supplier is named for HEL; also called HEL; antigen
T2 sequence (P00698 19-147): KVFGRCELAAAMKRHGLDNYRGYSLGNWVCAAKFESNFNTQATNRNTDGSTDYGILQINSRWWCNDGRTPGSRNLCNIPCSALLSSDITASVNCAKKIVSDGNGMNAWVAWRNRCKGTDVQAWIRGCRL

Row | EC50 | Binder
8 | 39 nM | B1
9 | 276 nM | B2
10 | 401 nM | B3
11 | 397 nM | B4
12 | 263 nM | B5
13 | 362 nM | B6
14 | 50 nM | B7

biological target: T2, hen egg lysozyme; test: ELISA; HEL or BSA (2 μg/mL in 100 μL PBS) coated on microplate wells, 16 h 4 °C; sdAb or mini Q-body added at 2 μg/mL, 1 h 37 °C; bound protein probed with anti-His-HRP; settings: both partners purified

Row | binding result | Binder
15 | binds | B8
16 | binds | B9
17 | no binding (tested: 2 μg/mL) | B10
